The results in this text go back to US20240166750A1 (published 2024).

The target in assay [1] is T1, Recombinant human FcγRIIIa-V158 (human, UniProt P08637 17-208). The experiment in a line: SPR; -kif.
For assay [2], the target named is T1, Recombinant human FcγRIIIa-V158. The experiment in a line: SPR; +kif. Background: SPR reads the build-up and loss of mass on a sensor chip optically.

T1 sequence (P08637 17-208 F176V): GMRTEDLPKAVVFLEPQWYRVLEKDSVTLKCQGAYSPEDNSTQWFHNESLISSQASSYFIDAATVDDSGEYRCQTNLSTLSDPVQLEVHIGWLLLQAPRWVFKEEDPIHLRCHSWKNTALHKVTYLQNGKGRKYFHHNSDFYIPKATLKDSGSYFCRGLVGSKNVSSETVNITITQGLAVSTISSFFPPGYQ

B1: human IgG1 antibody specific for protein 4, S239D/S298A + R292C/V302C, -Kif (antibody)
chain: ASTKGPSVFPLAPSSKSTSGGTAALGCLVKDYFPEPVTVSWNSGALTSGVHTFPAVLQSSGLYSLSSVVTVPSSSLGTQTYICNVNHKPSNTKVDKKVEPKSCDKTHTCPPCPAPELLGGPDVFLFPPKPKDTLMISRTPEVTCVVVDVSHEDPEVKFNWYVDGVEVHNAKTKPCEEQYNATYRCVSVLTVLHQDWLNGKEYKCKVSNKALPAPIEKTISKAKGQPREPQVYTLPPSRDELTKNQVSLTCLVKGFYPSDIAVEWESNGQPENNYKTTPPVLDSDGSFFLYSKLTVDKSRWQQGNVFSCSVMHEALHNHYTQKSLSLSPGK
Take B1: the Kd (commonly a measure of binding affinity in units of concentration) in assay [1] stood at 41.8 nM.

B2: human IgG1 antibody specific for protein 4, S239D/S298A + T256D/T307Q, -Kif (antibody)
chain: ASTKGPSVFPLAPSSKSTSGGTAALGCLVKDYFPEPVTVSWNSGALTSGVHTFPAVLQSSGLYSLSSVVTVPSSSLGTQTYICNVNHKPSNTKVDKKVEPKSCDKTHTCPPCPAPELLGGPDVFLFPPKPKDTLMISRDPEVTCVVVDVSHEDPEVKFNWYVDGVEVHNAKTKPREEQYNATYRVVSVLQVLHQDWLNGKEYKCKVSNKALPAPIEKTISKAKGQPREPQVYTLPPSRDELTKNQVSLTCLVKGFYPSDIAVEWESNGQPENNYKTTPPVLDSDGSFFLYSKLTVDKSRWQQGNVFSCSVMHEALHNHYTQKSLSLSPGK
Take B2: the Kd in assay [1] turned out to be 30.7 nM.

B3: human IgG1 antibody specific for protein 4, S239D + T256D/T307Q, -Kif (antibody)
chain: ASTKGPSVFPLAPSSKSTSGGTAALGCLVKDYFPEPVTVSWNSGALTSGVHTFPAVLQSSGLYSLSSVVTVPSSSLGTQTYICNVNHKPSNTKVDKKVEPKSCDKTHTCPPCPAPELLGGPDVFLFPPKPKDTLMISRDPEVTCVVVDVSHEDPEVKFNWYVDGVEVHNAKTKPREEQYNSTYRVVSVLQVLHQDWLNGKEYKCKVSNKALPAPIEKTISKAKGQPREPQVYTLPPSRDELTKNQVSLTCLVKGFYPSDIAVEWESNGQPENNYKTTPPVLDSDGSFFLYSKLTVDKSRWQQGNVFSCSVMHEALHNHYTQKSLSLSPGK
Consider B3, for which the Kd in assay [1] worked out at 60.4 nM.

B4: human IgG1 antibody specific for protein 4, S239D/S298A + T256D/T307Q, +Kif (antibody)
chain: ASTKGPSVFPLAPSSKSTSGGTAALGCLVKDYFPEPVTVSWNSGALTSGVHTFPAVLQSSGLYSLSSVVTVPSSSLGTQTYICNVNHKPSNTKVDKKVEPKSCDKTHTCPPCPAPELLGGPDVFLFPPKPKDTLMISRDPEVTCVVVDVSHEDPEVKFNWYVDGVEVHNAKTKPREEQYNATYRVVSVLQVLHQDWLNGKEYKCKVSNKALPAPIEKTISKAKGQPREPQVYTLPPSRDELTKNQVSLTCLVKGFYPSDIAVEWESNGQPENNYKTTPPVLDSDGSFFLYSKLTVDKSRWQQGNVFSCSVMHEALHNHYTQKSLSLSPGK
On to B4, for which, in assay [2], the Kd worked out at 14 nM.

B5: human IgG1 antibody specific for protein 4, S239D/I332E + T256D/T307Q + R292C/V302C, +Kif (antibody)
chain: ASTKGPSVFPLAPSSKSTSGGTAALGCLVKDYFPEPVTVSWNSGALTSGVHTFPAVLQSSGLYSLSSVVTVPSSSLGTQTYICNVNHKPSNTKVDKKVEPKSCDKTHTCPPCPAPELLGGPDVFLFPPKPKDTLMISRDPEVTCVVVDVSHEDPEVKFNWYVDGVEVHNAKTKPCEEQYNSTYRCVSVLQVLHQDWLNGKEYKCKVSNKALPAPEEKTISKAKGQPREPQVYTLPPSRDELTKNQVSLTCLVKGFYPSDIAVEWESNGQPENNYKTTPPVLDSDGSFFLYSKLTVDKSRWQQGNVFSCSVMHEALHNHYTQKSLSLSPGK
On to B5, for which the Kd in assay [2] came to 5.24 nM.

B6: human IgG1 antibody specific for protein 4, S239D/I332E + R292C/V302C, -Kif (antibody)
chain: ASTKGPSVFPLAPSSKSTSGGTAALGCLVKDYFPEPVTVSWNSGALTSGVHTFPAVLQSSGLYSLSSVVTVPSSSLGTQTYICNVNHKPSNTKVDKKVEPKSCDKTHTCPPCPAPELLGGPDVFLFPPKPKDTLMISRTPEVTCVVVDVSHEDPEVKFNWYVDGVEVHNAKTKPCEEQYNSTYRCVSVLTVLHQDWLNGKEYKCKVSNKALPAPEEKTISKAKGQPREPQVYTLPPSRDELTKNQVSLTCLVKGFYPSDIAVEWESNGQPENNYKTTPPVLDSDGSFFLYSKLTVDKSRWQQGNVFSCSVMHEALHNHYTQKSLSLSPGK
Take B6: the Kd in assay [1] came to 11.1 nM.

B7: human IgG1 antibody specific for protein 4, S239D/I332E + T256D/T307Q, +Kif (antibody)
chain: ASTKGPSVFPLAPSSKSTSGGTAALGCLVKDYFPEPVTVSWNSGALTSGVHTFPAVLQSSGLYSLSSVVTVPSSSLGTQTYICNVNHKPSNTKVDKKVEPKSCDKTHTCPPCPAPELLGGPDVFLFPPKPKDTLMISRDPEVTCVVVDVSHEDPEVKFNWYVDGVEVHNAKTKPREEQYNSTYRVVSVLQVLHQDWLNGKEYKCKVSNKALPAPEEKTISKAKGQPREPQVYTLPPSRDELTKNQVSLTCLVKGFYPSDIAVEWESNGQPENNYKTTPPVLDSDGSFFLYSKLTVDKSRWQQGNVFSCSVMHEALHNHYTQKSLSLSPGK
In the case of B7, the Kd in assay [2] came out at 7.59 nM.

B8: human IgG1 antibody specific for protein 4, S239D/I332E + T256D/T307Q + R292C/V302C, -Kif (antibody)
chain: ASTKGPSVFPLAPSSKSTSGGTAALGCLVKDYFPEPVTVSWNSGALTSGVHTFPAVLQSSGLYSLSSVVTVPSSSLGTQTYICNVNHKPSNTKVDKKVEPKSCDKTHTCPPCPAPELLGGPDVFLFPPKPKDTLMISRDPEVTCVVVDVSHEDPEVKFNWYVDGVEVHNAKTKPCEEQYNSTYRCVSVLQVLHQDWLNGKEYKCKVSNKALPAPEEKTISKAKGQPREPQVYTLPPSRDELTKNQVSLTCLVKGFYPSDIAVEWESNGQPENNYKTTPPVLDSDGSFFLYSKLTVDKSRWQQGNVFSCSVMHEALHNHYTQKSLSLSPGK
As for B8, the Kd in assay [1] turned out to be 15.1 nM.

B9: human IgG1 antibody specific for protein 4, S239D + R292C/V302C, -Kif (antibody)
chain: ASTKGPSVFPLAPSSKSTSGGTAALGCLVKDYFPEPVTVSWNSGALTSGVHTFPAVLQSSGLYSLSSVVTVPSSSLGTQTYICNVNHKPSNTKVDKKVEPKSCDKTHTCPPCPAPELLGGPDVFLFPPKPKDTLMISRTPEVTCVVVDVSHEDPEVKFNWYVDGVEVHNAKTKPCEEQYNSTYRCVSVLTVLHQDWLNGKEYKCKVSNKALPAPIEKTISKAKGQPREPQVYTLPPSRDELTKNQVSLTCLVKGFYPSDIAVEWESNGQPENNYKTTPPVLDSDGSFFLYSKLTVDKSRWQQGNVFSCSVMHEALHNHYTQKSLSLSPGK
Regarding B9, in assay [1], the Kd was found to be 68.6 nM.

B10: human IgG1 antibody specific for protein 4, S239D/I332E + R292C/V302C, +Kif (antibody)
chain: ASTKGPSVFPLAPSSKSTSGGTAALGCLVKDYFPEPVTVSWNSGALTSGVHTFPAVLQSSGLYSLSSVVTVPSSSLGTQTYICNVNHKPSNTKVDKKVEPKSCDKTHTCPPCPAPELLGGPDVFLFPPKPKDTLMISRTPEVTCVVVDVSHEDPEVKFNWYVDGVEVHNAKTKPCEEQYNSTYRCVSVLTVLHQDWLNGKEYKCKVSNKALPAPEEKTISKAKGQPREPQVYTLPPSRDELTKNQVSLTCLVKGFYPSDIAVEWESNGQPENNYKTTPPVLDSDGSFFLYSKLTVDKSRWQQGNVFSCSVMHEALHNHYTQKSLSLSPGK
On to B10, for which the Kd in assay [2] is 5.46 nM.

B11: human IgG1 antibody specific for protein 4, S239D/S298A + R292C/V302C, +Kif (antibody)
chain: ASTKGPSVFPLAPSSKSTSGGTAALGCLVKDYFPEPVTVSWNSGALTSGVHTFPAVLQSSGLYSLSSVVTVPSSSLGTQTYICNVNHKPSNTKVDKKVEPKSCDKTHTCPPCPAPELLGGPDVFLFPPKPKDTLMISRTPEVTCVVVDVSHEDPEVKFNWYVDGVEVHNAKTKPCEEQYNATYRCVSVLTVLHQDWLNGKEYKCKVSNKALPAPIEKTISKAKGQPREPQVYTLPPSRDELTKNQVSLTCLVKGFYPSDIAVEWESNGQPENNYKTTPPVLDSDGSFFLYSKLTVDKSRWQQGNVFSCSVMHEALHNHYTQKSLSLSPGK
Consider B11, for which, in assay [2], the Kd was 8.76 nM.

B12: human IgG1 antibody specific for protein 4, S239D/S298A + T256D/T307Q + R292C/V302C, +Kif (antibody)
chain: ASTKGPSVFPLAPSSKSTSGGTAALGCLVKDYFPEPVTVSWNSGALTSGVHTFPAVLQSSGLYSLSSVVTVPSSSLGTQTYICNVNHKPSNTKVDKKVEPKSCDKTHTCPPCPAPELLGGPDVFLFPPKPKDTLMISRDPEVTCVVVDVSHEDPEVKFNWYVDGVEVHNAKTKPCEEQYNATYRCVSVLQVLHQDWLNGKEYKCKVSNKALPAPIEKTISKAKGQPREPQVYTLPPSRDELTKNQVSLTCLVKGFYPSDIAVEWESNGQPENNYKTTPPVLDSDGSFFLYSKLTVDKSRWQQGNVFSCSVMHEALHNHYTQKSLSLSPGK
B12: the Kd in assay [2] is 12.8 nM.

B13: human IgG1 antibody specific for protein 4, S239D + T256D/T307Q, +Kif (antibody)
chain: ASTKGPSVFPLAPSSKSTSGGTAALGCLVKDYFPEPVTVSWNSGALTSGVHTFPAVLQSSGLYSLSSVVTVPSSSLGTQTYICNVNHKPSNTKVDKKVEPKSCDKTHTCPPCPAPELLGGPDVFLFPPKPKDTLMISRDPEVTCVVVDVSHEDPEVKFNWYVDGVEVHNAKTKPREEQYNSTYRVVSVLQVLHQDWLNGKEYKCKVSNKALPAPIEKTISKAKGQPREPQVYTLPPSRDELTKNQVSLTCLVKGFYPSDIAVEWESNGQPENNYKTTPPVLDSDGSFFLYSKLTVDKSRWQQGNVFSCSVMHEALHNHYTQKSLSLSPGK
With B13, in assay [2], the Kd amounted to 19.7 nM.

B14: human IgG1 antibody specific for protein 4, S239D + R292C/V302C, +Kif (antibody)
chain: ASTKGPSVFPLAPSSKSTSGGTAALGCLVKDYFPEPVTVSWNSGALTSGVHTFPAVLQSSGLYSLSSVVTVPSSSLGTQTYICNVNHKPSNTKVDKKVEPKSCDKTHTCPPCPAPELLGGPDVFLFPPKPKDTLMISRTPEVTCVVVDVSHEDPEVKFNWYVDGVEVHNAKTKPCEEQYNSTYRCVSVLTVLHQDWLNGKEYKCKVSNKALPAPIEKTISKAKGQPREPQVYTLPPSRDELTKNQVSLTCLVKGFYPSDIAVEWESNGQPENNYKTTPPVLDSDGSFFLYSKLTVDKSRWQQGNVFSCSVMHEALHNHYTQKSLSLSPGK
As to B14, the Kd in assay [2] stood at 8.97 nM.

B15: human IgG1 antibody specific for protein 4, S239D + T256D/T307Q + R292C/V302C, +Kif (antibody)
chain: ASTKGPSVFPLAPSSKSTSGGTAALGCLVKDYFPEPVTVSWNSGALTSGVHTFPAVLQSSGLYSLSSVVTVPSSSLGTQTYICNVNHKPSNTKVDKKVEPKSCDKTHTCPPCPAPELLGGPDVFLFPPKPKDTLMISRDPEVTCVVVDVSHEDPEVKFNWYVDGVEVHNAKTKPCEEQYNSTYRCVSVLQVLHQDWLNGKEYKCKVSNKALPAPIEKTISKAKGQPREPQVYTLPPSRDELTKNQVSLTCLVKGFYPSDIAVEWESNGQPENNYKTTPPVLDSDGSFFLYSKLTVDKSRWQQGNVFSCSVMHEALHNHYTQKSLSLSPGK
Regarding B15, the Kd in assay [2] worked out at 13.1 nM.

B16: human IgG1 antibody specific for protein 4, T256D/T307Q + R292C/V302C, +Kif (antibody)
chain: ASTKGPSVFPLAPSSKSTSGGTAALGCLVKDYFPEPVTVSWNSGALTSGVHTFPAVLQSSGLYSLSSVVTVPSSSLGTQTYICNVNHKPSNTKVDKKVEPKSCDKTHTCPPCPAPELLGGPSVFLFPPKPKDTLMISRDPEVTCVVVDVSHEDPEVKFNWYVDGVEVHNAKTKPCEEQYNSTYRCVSVLQVLHQDWLNGKEYKCKVSNKALPAPIEKTISKAKGQPREPQVYTLPPSRDELTKNQVSLTCLVKGFYPSDIAVEWESNGQPENNYKTTPPVLDSDGSFFLYSKLTVDKSRWQQGNVFSCSVMHEALHNHYTQKSLSLSPGK
Consider B16, for which, in assay [2], the Kd was determined as 153 nM.
